In this experiment the target is T1, RAIDD (construct or tag not stated for the experiment) (human, UniProt P78560 1-199).
T1 construct: a tag may have been present; also called RAIDD expression construct
Description: in vitro binding to GST fusion protein on glutathione beads. On the procedure:
In Vitro Binding Assay. […] The tagged proteins were expressed, purified, and immobilized into Ni²⁺ beads according to standard methodology. The GST-Fas and TNFR-1 fusion proteins were prepared as described previously (Chinnaiyan, A. M. et al., Cell 81:505-12 (1995)). ³⁵S-labeled proteins were obtained by in vitro transcription/translation using the TNT T7-coupled reticulocyte lysate system (Promega).
Beads were washed, boiled in SDS sample buffer, eluted proteins resolved by SDS-PAGE and visualized following autoradiography.

T1 sequence (P78560 whole entry): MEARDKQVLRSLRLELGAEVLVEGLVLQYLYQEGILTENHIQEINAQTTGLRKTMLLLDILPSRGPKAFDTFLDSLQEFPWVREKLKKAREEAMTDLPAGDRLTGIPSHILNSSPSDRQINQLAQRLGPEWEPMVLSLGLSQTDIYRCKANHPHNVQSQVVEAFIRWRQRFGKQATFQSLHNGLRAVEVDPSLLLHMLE

B1: GST-Fas fusion protein (receptor, UniProt P25445 191-335, looked up)
chain: KRKEVQKTCRKHRKENQGSHESPTLNPETVAINLSDVDLSKYITTIAGVMTLSQVKGFVRKNGVNEAKIDEIKNDNVQDTAEQKVQLLRNWHQLHGKKEAYDTLIKDLKKANLCTLAEKIQTIILKDITSDSENSNFRNEIQSLV
notes: not shown: GST
As to B1, the binding result is on record as “no binding”.

Source of the values: patent publication US20030096288A1 (Human Genome Sciences, published 2003).
